Test [1] has as its target T1, recombinant human IL1RAP ECD (human, UniProt Q9NPH3 21-367).
T1 construct: His-tagged; also called hIL1RAP-ECD; rhuIL1RAP
T1 sequence: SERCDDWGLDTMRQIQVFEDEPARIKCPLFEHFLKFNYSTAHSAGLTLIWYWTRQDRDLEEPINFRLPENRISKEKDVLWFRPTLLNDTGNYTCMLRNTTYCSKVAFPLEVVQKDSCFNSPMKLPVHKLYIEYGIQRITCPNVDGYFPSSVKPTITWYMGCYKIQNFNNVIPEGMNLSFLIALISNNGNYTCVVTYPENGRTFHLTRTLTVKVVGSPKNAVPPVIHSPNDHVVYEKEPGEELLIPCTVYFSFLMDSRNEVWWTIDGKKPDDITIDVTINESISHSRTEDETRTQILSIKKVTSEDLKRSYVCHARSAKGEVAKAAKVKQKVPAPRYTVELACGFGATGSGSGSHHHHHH
The experiment in a line: SPR; human KD over cyno KD.

For test [2], the target named is T2, recombinant cyno IL1RAP ECD (cynomolgus monkey, UniProt P59822 21-367 (rhesus entry)).
T2 construct: also called rcynoIL1RAP
T2 sequence: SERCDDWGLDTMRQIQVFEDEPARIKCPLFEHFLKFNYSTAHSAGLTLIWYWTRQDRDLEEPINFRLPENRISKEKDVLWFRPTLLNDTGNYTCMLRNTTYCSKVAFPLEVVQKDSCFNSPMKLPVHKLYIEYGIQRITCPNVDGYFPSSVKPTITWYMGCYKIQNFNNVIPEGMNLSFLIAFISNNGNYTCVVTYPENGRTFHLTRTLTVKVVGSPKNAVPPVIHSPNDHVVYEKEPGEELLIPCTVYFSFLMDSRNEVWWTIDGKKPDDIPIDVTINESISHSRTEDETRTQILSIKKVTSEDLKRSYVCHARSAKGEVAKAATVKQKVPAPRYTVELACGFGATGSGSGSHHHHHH
As to the kind of experiment: SPR. In general terms: Surface plasmon resonance follows binding to a sensor surface in real time, without labels.

The target in test [3] is T2, recombinant cyno IL1RAP ECD. As to the kind of experiment: SPR, summary.
For test [4], the target named is T1, recombinant human IL1RAP ECD. As to the kind of experiment: SPR, summary.
Test [5] shares this target. The experiment in a line: SPR.
The target in test [6] is T3, human IL1RAP on cells (endogenous) (human, UniProt Q9NPH3 21-570).
T3 sequence (looked up): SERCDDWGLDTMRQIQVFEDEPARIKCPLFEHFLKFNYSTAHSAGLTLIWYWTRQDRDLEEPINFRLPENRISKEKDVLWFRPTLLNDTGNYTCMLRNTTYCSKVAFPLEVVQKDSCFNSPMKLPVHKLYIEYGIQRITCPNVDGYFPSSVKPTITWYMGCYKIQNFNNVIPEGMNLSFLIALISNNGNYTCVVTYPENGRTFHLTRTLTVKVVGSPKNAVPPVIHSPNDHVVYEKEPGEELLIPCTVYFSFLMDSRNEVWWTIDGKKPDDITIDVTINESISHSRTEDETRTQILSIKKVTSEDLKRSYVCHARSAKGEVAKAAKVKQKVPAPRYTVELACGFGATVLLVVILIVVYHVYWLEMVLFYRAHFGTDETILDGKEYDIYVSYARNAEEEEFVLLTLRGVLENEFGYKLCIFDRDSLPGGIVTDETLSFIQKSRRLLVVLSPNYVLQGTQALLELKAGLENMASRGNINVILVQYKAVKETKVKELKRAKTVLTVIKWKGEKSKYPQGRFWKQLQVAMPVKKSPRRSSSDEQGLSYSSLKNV
The experiment in a line: cell-based or functional assay.

Test [7] deals with T2, recombinant cyno IL1RAP ECD. As to the kind of experiment: SPR. The source holds these as a separate data set.
Test [8] concerns the target T1, recombinant human IL1RAP ECD. As to the kind of experiment: SPR. The source holds these as a separate data set.
For test [9] the target is unchanged. The experiment in a line: SPR, summary. This is another data set of the same source.
Test [10] deals with T2, recombinant cyno IL1RAP ECD. As to the kind of experiment: recombinant protein.
Test [11] concerns the target T4, cyno IL1RAP ECD displayed on HEK-293F cells (pDisplay) (cynomolgus monkey, UniProt P59822 21-367 (rhesus entry)).
T4 sequence: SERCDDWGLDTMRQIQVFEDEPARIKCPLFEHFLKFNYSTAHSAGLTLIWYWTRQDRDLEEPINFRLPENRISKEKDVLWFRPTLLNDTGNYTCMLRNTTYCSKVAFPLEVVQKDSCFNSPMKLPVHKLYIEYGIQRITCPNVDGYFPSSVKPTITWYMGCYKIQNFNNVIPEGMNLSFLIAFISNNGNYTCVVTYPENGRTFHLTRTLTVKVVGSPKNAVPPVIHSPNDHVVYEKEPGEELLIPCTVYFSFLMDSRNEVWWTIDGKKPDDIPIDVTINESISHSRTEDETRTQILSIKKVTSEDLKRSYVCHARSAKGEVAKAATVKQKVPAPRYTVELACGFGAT
As to the kind of experiment: HEK-293F cells (MSD).

In test [12] the target is T1, recombinant human IL1RAP ECD. The experiment in a line: SPR (ProteOn). The protocol:
The rates of IL1RAP ECD association and dissociation were measured for each variant. The biosensor surface was prepared by covalently coupling Goat anti-Human IgG (Fc) to the surface of a GLC chip (BioRad) using the manufacturer instructions for amine-coupling chemistry. […] The RU immobilized also included a goat anti-mouse Fc antibody that was added to capture other antibodies not included in the ones reported here. Since the mixture was 1:1 about 50% of these RU immobilized are expected to be goat anti-human Fc. The kinetic experiments were performed at 25° C. in running buffer (PBS pH 7.4, 0.005% P20, 3 mM EDTA). […] (1:3) serial dilutions of human IL1RAP ECD, starting at 400 nM were prepared in running buffer. […] The reference spots (Goat anti-Human IgG (Fc)-modified surface) containing no candidate captured were used as a reference surface. Capture of mAb was followed by a 3 minute injection (association phase) of antigen at 40 μL/min, followed by 10 minutes of buffer flow (dissociation phase). […] Data was processed on the instrument software. Double reference subtraction of the data was performed by subtracting the curves generated by buffer injection from the reference-subtracted curves for analyte injections. Kinetic analysis of the data was performed using 1:1 Langmuir binding model with group fit.

B1: IC3B15 (bispecific antibody, human IgG4 S228P, kappa, lambda, F234A L235A)
heavy 1: EVQLVESGGGLVQPGGSLKLSCAASGFTFNTYAMNWVRQASGKGLEWVGRIRSKYNAYATYYAASVKGRFTISRDDSKNTAYLQMNSLKTEDTAVYYCTRHGNFGNSYVSWFAYWGQGTLVTVSSASTKGPSVFPLAPCSRSTSESTAALGCLVKDYFPEPVTVSWNSGALTSGVHTFPAVLQSSGLYSLSSVVTVPSSSLGTKTYTCNVDHKPSNTKVDKRVESKYGPPCPPCPAPEAAGGPSVFLFPPKPKDTLMISRTPEVTCVVVDVSQEDPEVQFNWYVDGVEVHNAKTKPREEQFNSTYRVVSVLTVLHQDWLNGKEYKCKVSNKGLPSSIEKTISKAKGQPREPQVYTLPPSQEEMTKNQVSLTCLVKGFYPSDIAVEWESNGQPENNYKTTPPVLDSDGSFLLYSKLTVDKSRWQEGNVFSCSVMHEALHNHYTQKSLSLSLGK
light 1: QAVVTQEPSLTVSPGGTVTLTCRSSTGAVTTSNYANWVQQKPGQAPRGLIGGTNKRAPGTPARFSGSLLGGKAALTLSGAQPEDEAEYYCALWYSNLWVFGGGTKLTVLGQPKAAPSVTLFPPSSEELQANKATLVCLISDFYPGAVTVAWKADSSPVKAGVETTTPSKQSNNKYAASSYLSLTPEQWKSHRSYSCQVTHEGSTVEKTVAPTECS
heavy 2: not shown
light 2: not shown
notes: IgG4-PAA, Fab arm exchange; also called IAPB65 x CD3B220
What is called Kd is the equilibrium constant for the complex coming apart. Usually koff stands for a measure of how fast the partners let go of each other. As usually defined, the kon is a measure of how fast the partners come together. As for B1, the “Hu/Cyno KD Ratio” value in test [1] stood at 1.3. The Kd in [2] amounted to 9.08 nM; in test [3], 9.08 nM; in test [4], 11.5 nM; in test [5] it was 11.5 nM; in [7], 9.08 nM; in test [8] it was 11.5 nM. Moreover, the koff in test [2] was found to be 0.00344 s⁻¹; in test [5], 0.00395 s⁻¹. Further, the kon in test [2] is 379000 M⁻¹ s⁻¹; in test [5], 343000 M⁻¹ s⁻¹. In test [6], the “EC50, T-cell mediated cytotoxicity” value is 0.94 nM.

B2: IAPB55 (antibody, human IgG4 S228P, kappa, F234A L235A, V domains shown)
VH: QLQLQESGPGLVKPSETLSLTCTVSGVSISSSTYYWGWLRQPPGMGLEWTGSIYFTGNTYYNPSLKSRVTISVDTSRNQFSLKLSSVTAADTAVYYCGSLFGDYGYFDYWGQGTLVTVSS
VL: EIVMTQSPATLSVSPGERATLSCRASQFISSNLAWYQQKPGQAPRLLIYGASTRATGIPARFSGSGSGTDFTLTISSLQSEDFAVYYCQQYNNWPFTFGPGTKVDIKR
notes: IgG4-PAA; whole chains
With B2, the Kd in test [9] worked out at 1.64 nM. Besides, the binding result in test [10] and in test [11] was “binds” throughout.

B3: IAPB61 (antibody, human IgG4 S228P, kappa, F234A L235A, V domains shown)
VH: QLQLQESGPGLVKPSETLSLTCTVSGVSISSSTYYWGWLRQPPGMGLEWTGSIYFTGNTYYNPSLKSRVTISVDTSRNQFSLKLSSVTAADTAVYYCGSLFGDYGYFDYWGQGTLVTVSS
VL: EIVMTQSPATLSVPPGERATLSCRASQFISSNLAWYQQKPGQAPRLLIYGASTRATGIPARFSGSGSGTDFTLTISSLQSEDFAVYYCQQYNNWPSTFGPGTKVDIKR
notes: IgG4-PAA; whole chains
On to B3, for which the Kd in [9] was found to be 17.5 nM. Further, the binding result in test [10] and in test [11] was “binds” throughout.

B4: IAPB23 (antibody, human IgG4 S228P, kappa, F234A L235A, V domains shown)
VH: EVQLLESGGGLVQPGGSLRLSCAASGFTFSNYWMNWVRQAPGKGLEWVSAIRYDGGSKYYADSVKGRFTISRDNSKNTLYLQMNSLRAEDTAVYYCAKDAYPPYSFDYWGQGTLVTVSS
VL: EIVLTQSPATLSLSPGERATLSCRASQSVSSYLAWYQQKPGQAPRLLIYDASNRATGIPARFSGSGSGTDFTLTISSLEPEDFAVYYCQQRSNWPLTFGQGTKVEIKR
notes: IgG4-PAA; whole chains
As for B4, in test [12], the Kd worked out at 4.7 nM, the koff was found to be 0.00149 s⁻¹ and the kon was determined as 317000 M⁻¹ s⁻¹. Further, the Kd in test [9] stood at 4.7 nM. Further, in test [10], the binding result is listed as “binds”. Also, the binding result in test [11] is given as “binds”.

B5: IAPB03 (antibody, human IgG4 S228P, kappa, F234A L235A, V domains shown)
VH: QVQLVQSGAEVKKPGSSVKVSCKASGGTFSSYAISWVRQAPGQGLEWMGGISAIFGTANYAQKFQGRVTITADESTSTAYMELSSLRSEDTAVYYCARGNSFHALWDYAFDYWGQGTLVTVSS
VL: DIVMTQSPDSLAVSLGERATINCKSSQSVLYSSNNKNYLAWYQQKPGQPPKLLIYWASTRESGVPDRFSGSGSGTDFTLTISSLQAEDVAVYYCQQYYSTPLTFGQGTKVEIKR
notes: IgG4-PAA; the entries called VH/VL are whole chains; also called IAPB3
As to B5, in test [12], the dissociation constant (Kd) was found to be 2.64 nM, the koff turned out to be 0.000357 s⁻¹ and the on-rate (kon) turned out to be 135000 M⁻¹ s⁻¹. The dissociation constant Kd in test [9] is 2.64 nM. Also, the binding result in [10] is on record as “binds”. In [11], the binding result was “binds”.

Values taken from patent publication US20190270826A1 (Janssen / Centocor, published 2019).
